Reference: US20230021388A1 (VELOSBIO, published 2023)

B1: Ab1 Fab variant H2 G67S (Fab, V domains shown)
VH: QVQLQESGPGLVKPSQTLSLTCTVSGYAFTAYNIHWVRQAPGQGLEWMGSFDPYDGSSSYNQKFKDRLTISKDTSKNQVVLTMTNMDPVDTATYYCARGWYYFDYWGHGTLVTVSS
VL: DIVMTQTPLSLPVTPGEPASISCRASKSISKYLAWYQQKPGQAPRLLIYSGSTLQSGIPPRFSGSGYGTDFTLTINNIESEDAAYYFCQQHDESPYTFGEGTKVEIK
notes: Fab
B2: Ab1 Fab variant H2 K73C (Fab, V domains shown)
VH: QVQLQESGPGLVKPSQTLSLTCTVSGYAFTAYNIHWVRQAPGQGLEWMGSFDPYDGGSSYNQCFKDRLTISKDTSKNQVVLTMTNMDPVDTATYYCARGWYYFDYWGHGTLVTVSS
VL: DIVMTQTPLSLPVTPGEPASISCRASKSISKYLAWYQQKPGQAPRLLIYSGSTLQSGIPPRFSGSGYGTDFTLTINNIESEDAAYYFCQQHDESPYTFGEGTKVEIK
notes: Fab
B3: Ab1 Fab variant H3 F136L (Fab, V domains shown)
VH: QVQLQESGPGLVKPSQTLSLTCTVSGYAFTAYNIHWVRQAPGQGLEWMGSFDPYDGGSSYNQKFKDRLTISKDTSKNQVVLTMTNMDPVDTATYYCARGWYYLDYWGHGTLVTVSS
VL: DIVMTQTPLSLPVTPGEPASISCRASKSISKYLAWYQQKPGQAPRLLIYSGSTLQSGIPPRFSGSGYGTDFTLTINNIESEDAAYYFCQQHDESPYTFGEGTKVEIK
notes: Fab
B4: Ab1 Fab variant H3 A107V (Fab, V domains shown)
VH: QVQLQESGPGLVKPSQTLSLTCTVSGYAFTAYNIHWVRQAPGQGLEWMGSFDPYDGGSSYNQKFKDRLTISKDTSKNQVVLTMTNMDPVDTATYYCVRGWYYFDYWGHGTLVTVSS
VL: DIVMTQTPLSLPVTPGEPASISCRASKSISKYLAWYQQKPGQAPRLLIYSGSTLQSGIPPRFSGSGYGTDFTLTINNIESEDAAYYFCQQHDESPYTFGEGTKVEIK
notes: Fab
B5: Ab1 Fab variant H2 P60T (Fab, V domains shown)
VH: QVQLQESGPGLVKPSQTLSLTCTVSGYAFTAYNIHWVRQAPGQGLEWMGSFDTYDGGSSYNQKFKDRLTISKDTSKNQVVLTMTNMDPVDTATYYCARGWYYFDYWGHGTLVTVSS
VL: DIVMTQTPLSLPVTPGEPASISCRASKSISKYLAWYQQKPGQAPRLLIYSGSTLQSGIPPRFSGSGYGTDFTLTINNIESEDAAYYFCQQHDESPYTFGEGTKVEIK
notes: Fab
B6: Ab1 Fab variant H3 R108G (Fab, V domains shown)
VH: QVQLQESGPGLVKPSQTLSLTCTVSGYAFTAYNIHWVRQAPGQGLEWMGSFDPYDGGSSYNQKFKDRLTISKDTSKNQVVLTMTNMDPVDTATYYCAGGWYYFDYWGHGTLVTVSS
VL: DIVMTQTPLSLPVTPGEPASISCRASKSISKYLAWYQQKPGQAPRLLIYSGSTLQSGIPPRFSGSGYGTDFTLTINNIESEDAAYYFCQQHDESPYTFGEGTKVEIK
notes: Fab
B7: Ab1 Fab variant H3 Y111L (Fab, V domains shown)
VH: QVQLQESGPGLVKPSQTLSLTCTVSGYAFTAYNIHWVRQAPGQGLEWMGSFDPYDGGSSYNQKFKDRLTISKDTSKNQVVLTMTNMDPVDTATYYCARGWLYFDYWGHGTLVTVSS
VL: DIVMTQTPLSLPVTPGEPASISCRASKSISKYLAWYQQKPGQAPRLLIYSGSTLQSGIPPRFSGSGYGTDFTLTINNIESEDAAYYFCQQHDESPYTFGEGTKVEIK
notes: Fab
B8: Ab1 Fab variant H3 A107T (Fab, V domains shown)
VH: QVQLQESGPGLVKPSQTLSLTCTVSGYAFTAYNIHWVRQAPGQGLEWMGSFDPYDGGSSYNQKFKDRLTISKDTSKNQVVLTMTNMDPVDTATYYCTRGWYYFDYWGHGTLVTVSS
VL: DIVMTQTPLSLPVTPGEPASISCRASKSISKYLAWYQQKPGQAPRLLIYSGSTLQSGIPPRFSGSGYGTDFTLTINNIESEDAAYYFCQQHDESPYTFGEGTKVEIK
notes: Fab
B9: Ab1 Fab variant H3 Y138V (Fab, V domains shown)
VH: QVQLQESGPGLVKPSQTLSLTCTVSGYAFTAYNIHWVRQAPGQGLEWMGSFDPYDGGSSYNQKFKDRLTISKDTSKNQVVLTMTNMDPVDTATYYCARGWYYFDVWGHGTLVTVSS
VL: DIVMTQTPLSLPVTPGEPASISCRASKSISKYLAWYQQKPGQAPRLLIYSGSTLQSGIPPRFSGSGYGTDFTLTINNIESEDAAYYFCQQHDESPYTFGEGTKVEIK
notes: Fab
B10: Ab1 Fab variant H2 K75A (Fab, V domains shown)
VH: QVQLQESGPGLVKPSQTLSLTCTVSGYAFTAYNIHWVRQAPGQGLEWMGSFDPYDGGSSYNQKFADRLTISKDTSKNQVVLTMTNMDPVDTATYYCARGWYYFDYWGHGTLVTVSS
VL: DIVMTQTPLSLPVTPGEPASISCRASKSISKYLAWYQQKPGQAPRLLIYSGSTLQSGIPPRFSGSGYGTDFTLTINNIESEDAAYYFCQQHDESPYTFGEGTKVEIK
notes: Fab
B11: Ab1 Fab variant H2 S68E (Fab, V domains shown)
VH: QVQLQESGPGLVKPSQTLSLTCTVSGYAFTAYNIHWVRQAPGQGLEWMGSFDPYDGGESYNQKFKDRLTISKDTSKNQVVLTMTNMDPVDTATYYCARGWYYFDYWGHGTLVTVSS
VL: DIVMTQTPLSLPVTPGEPASISCRASKSISKYLAWYQQKPGQAPRLLIYSGSTLQSGIPPRFSGSGYGTDFTLTINNIESEDAAYYFCQQHDESPYTFGEGTKVEIK
notes: Fab
B12: Ab1 Fab variant H3 Y138Q (Fab, V domains shown)
VH: QVQLQESGPGLVKPSQTLSLTCTVSGYAFTAYNIHWVRQAPGQGLEWMGSFDPYDGGSSYNQKFKDRLTISKDTSKNQVVLTMTNMDPVDTATYYCARGWYYFDQWGHGTLVTVSS
VL: DIVMTQTPLSLPVTPGEPASISCRASKSISKYLAWYQQKPGQAPRLLIYSGSTLQSGIPPRFSGSGYGTDFTLTINNIESEDAAYYFCQQHDESPYTFGEGTKVEIK
notes: Fab
B13: Ab1 Fab variant H2 P60G (Fab, V domains shown)
VH: QVQLQESGPGLVKPSQTLSLTCTVSGYAFTAYNIHWVRQAPGQGLEWMGSFDGYDGGSSYNQKFKDRLTISKDTSKNQVVLTMTNMDPVDTATYYCARGWYYFDYWGHGTLVTVSS
VL: DIVMTQTPLSLPVTPGEPASISCRASKSISKYLAWYQQKPGQAPRLLIYSGSTLQSGIPPRFSGSGYGTDFTLTINNIESEDAAYYFCQQHDESPYTFGEGTKVEIK
notes: Fab
B14: Ab1 Fab variant H2 S68Q (Fab, V domains shown)
VH: QVQLQESGPGLVKPSQTLSLTCTVSGYAFTAYNIHWVRQAPGQGLEWMGSFDPYDGGQSYNQKFKDRLTISKDTSKNQVVLTMTNMDPVDTATYYCARGWYYFDYWGHGTLVTVSS
VL: DIVMTQTPLSLPVTPGEPASISCRASKSISKYLAWYQQKPGQAPRLLIYSGSTLQSGIPPRFSGSGYGTDFTLTINNIESEDAAYYFCQQHDESPYTFGEGTKVEIK
notes: Fab
B15: Ab1 Fab variant H2 S68I (Fab, V domains shown)
VH: QVQLQESGPGLVKPSQTLSLTCTVSGYAFTAYNIHWVRQAPGQGLEWMGSFDPYDGGISYNQKFKDRLTISKDTSKNQVVLTMTNMDPVDTATYYCARGWYYFDYWGHGTLVTVSS
VL: DIVMTQTPLSLPVTPGEPASISCRASKSISKYLAWYQQKPGQAPRLLIYSGSTLQSGIPPRFSGSGYGTDFTLTINNIESEDAAYYFCQQHDESPYTFGEGTKVEIK
notes: Fab
B16: Ab1 Fab variant H3 Y138T (Fab, V domains shown)
VH: QVQLQESGPGLVKPSQTLSLTCTVSGYAFTAYNIHWVRQAPGQGLEWMGSFDPYDGGSSYNQKFKDRLTISKDTSKNQVVLTMTNMDPVDTATYYCARGWYYFDTWGHGTLVTVSS
VL: DIVMTQTPLSLPVTPGEPASISCRASKSISKYLAWYQQKPGQAPRLLIYSGSTLQSGIPPRFSGSGYGTDFTLTINNIESEDAAYYFCQQHDESPYTFGEGTKVEIK
notes: Fab
B17: Ab1 Fab variant H2 K75G (Fab, V domains shown)
VH: QVQLQESGPGLVKPSQTLSLTCTVSGYAFTAYNIHWVRQAPGQGLEWMGSFDPYDGGSSYNQKFGDRLTISKDTSKNQVVLTMTNMDPVDTATYYCARGWYYFDYWGHGTLVTVSS
VL: DIVMTQTPLSLPVTPGEPASISCRASKSISKYLAWYQQKPGQAPRLLIYSGSTLQSGIPPRFSGSGYGTDFTLTINNIESEDAAYYFCQQHDESPYTFGEGTKVEIK
notes: Fab
B18: Ab1 Fab variant H2 K73S (Fab, V domains shown)
VH: QVQLQESGPGLVKPSQTLSLTCTVSGYAFTAYNIHWVRQAPGQGLEWMGSFDPYDGGSSYNQSFKDRLTISKDTSKNQVVLTMTNMDPVDTATYYCARGWYYFDYWGHGTLVTVSS
VL: DIVMTQTPLSLPVTPGEPASISCRASKSISKYLAWYQQKPGQAPRLLIYSGSTLQSGIPPRFSGSGYGTDFTLTINNIESEDAAYYFCQQHDESPYTFGEGTKVEIK
notes: Fab
B19: Ab1 Fab variant H3 Y111A (Fab, V domains shown)
VH: QVQLQESGPGLVKPSQTLSLTCTVSGYAFTAYNIHWVRQAPGQGLEWMGSFDPYDGGSSYNQKFKDRLTISKDTSKNQVVLTMTNMDPVDTATYYCARGWAYFDYWGHGTLVTVSS
VL: DIVMTQTPLSLPVTPGEPASISCRASKSISKYLAWYQQKPGQAPRLLIYSGSTLQSGIPPRFSGSGYGTDFTLTINNIESEDAAYYFCQQHDESPYTFGEGTKVEIK
notes: Fab

What follows are binders tested against T1, recombinant human ROR1 extracellular domain (human, UniProt Q01973 30-406) (assay: capture filter lift).
T1 construct: biotinylated for the filter lifts; also called huROR1-ECD; human ROR1-ECD
Description: Subsequently, the filter was applied to the agar plates as described above. For detection of antigen binding, the filter was rinsed briefly in PBS, and transferred to biotinylated huROR1-ECD (ACROBiosystems, cat. #RO1-H522y) in 5% M-P.
Filters were incubated with 2.3 nM biotinylated ROR1 diluted in 5% M-P for 2 h at 25° C. with constant agitation, and washed 5 times, 2 minutes each wash, with constant agitation in PBS-T. Alternatively, filters were washed more rapidly using a squirt bottle and sintered glass funnel for vacuum filtration. The filters were transferred to 10 mL of High Sensitivity Neutravidin, HRP conjugate (Thermo Scientific, cat. #31030) diluted 5000-fold in 1% BSA in PBS and incubated for 1 h at 25° C. The filters were then washed 5 times in PBS-T and were developed with 1-Step Ultra TMB-Blotting.
All libraries were initially screened by capture lift to identify variants with improved binding. The capture lift assay, described in Example 1, enables the filter lift assay to discern variants that bind antigen more strongly based on the staining intensity. In order to determine the optimal concentration of antigen to use for screening, biotinylated huROR1-ECD was titrated on a capture lift of Ab1 Fab. Binding to Ab1 was clearly visible at antigen concentrations ≥23 nM and the signal was diminished at lower huROR1 concentrations. […] In addition, for more stringent screening, filters were probed with lower concentrations of antigen and/or development of the filter was terminated earlier, before the Ab1 staining was visible. […] In this example, approximately 250 library variants were plated. Twelve variants clearly bound huROR1 (FIG. 4, numbered).

T1 sequence (Q01973 30-406 limits assumed): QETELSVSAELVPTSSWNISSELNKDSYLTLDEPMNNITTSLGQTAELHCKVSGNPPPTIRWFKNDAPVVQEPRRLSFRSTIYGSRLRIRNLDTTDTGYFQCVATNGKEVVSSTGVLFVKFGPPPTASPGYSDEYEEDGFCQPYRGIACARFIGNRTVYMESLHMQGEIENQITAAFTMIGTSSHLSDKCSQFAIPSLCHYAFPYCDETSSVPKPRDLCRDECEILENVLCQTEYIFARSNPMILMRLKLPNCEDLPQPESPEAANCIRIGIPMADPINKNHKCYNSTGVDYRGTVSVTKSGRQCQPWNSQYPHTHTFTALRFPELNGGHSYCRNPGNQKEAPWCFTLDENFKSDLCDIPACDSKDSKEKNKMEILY

Binding result, binds:
B1
B2
B3
B4
B5
B6
B7
B8
B9
B10
B11
B12
B13
B14
B15
B16
B17
B18
B19
